# Source: PMC7609953, “Expression, Purification, Refolding, and Characterization of a Neverland Protein From Caenorhabditis elegans” (Frontiers in Bioengineering and Biotechnology, 2020)
# B1: Refolded His-tagged neverland protein from Caenorhabditis elegans (His_CeNVD) (enzyme)
# chain: RQLERLKLLRRVGDMPPVFPNGWYCVCESEKLANNQIMEITVLGQFLSLIRSESGAVYITDSYCPHIGANFNIGGRVVRDNCIQCPFHGWIFSAETGKCVEVPYDEGRIPEQAKVTTWPCIERNNNIYLWYHCDGAEPEWEIPEITEITDGFWHLGGRTEHEVMCHIQEIPENGADIAHLNYLHKSAPPVTKGSDIIKTDLSDPQPAVQHVWDGKWEVKSEEDRHCGVMHLNQFMTFWGYKVPLTSSKLVAEQHGPGIVHMLFDFGIWGKGVVFQTVTPEEALLQRVRFRIFSNIPWFFVKFFMTVEAMQFERDVFIWSNKKYIKSPLLVKNDGPIQKHRRWFSQFYTENSPKMLKDGSLSNQAKSIFDW
# Biological target: the molecule itself
# Test: SEC; Superdex200 Increase 10/300 GL, 20 mM Tris-HCl, 150 mM NaCl, 1 mM DTT, pH 8.0, 1 ml/min; aldolase (158 kDa) and conalbumin (75 kDa) as calibration proteins; oligomeric state of the refolded protein
protein,measurement,value
B1,stoichiometry N,3
